This note sets out measurements from the Immune Epitope Database (IEDB).

Assay [1] deals with HLA-A*24:02. As to the kind of experiment: IEDB peptide-MHC binding, purified MHC/direct/fluorescence; filed as Kd, often an IC50 or EC50 that approximates it; ≥ and ≤ were set here for values at or beyond the usual limits of such assays.
Assay [2] has as its target HLA-A*02:01. As to the kind of experiment: IEDB peptide-MHC binding, purified MHC/competitive/radioactivity; ≥ and ≤ were set here for values at or beyond the usual limits of such assays.
For assay [3], the target named is HLA-A*01:01. As to the kind of experiment: IEDB peptide-MHC binding, purified MHC/competitive/fluorescence; ≥ and ≤ were set here for values at or beyond the usual limits of such assays.
The target in assay [4] is HLA-A*02:01. Described as above.
In assay [5] the target is HLA-A*24:03. As to the kind of experiment: IEDB peptide-MHC binding, purified MHC/competitive/fluorescence; filed as Kd, often an IC50 or EC50 that approximates it; ≥ and ≤ were set here for values at or beyond the usual limits of such assays. Particulars: source organism: Escherichia coli str. K-12 substr. MG1655.
Assay [6] concerns the target HLA-A*69:01. The experiment in a line: IEDB peptide-MHC binding, purified MHC/direct/fluorescence; filed as Kd, often an IC50 or EC50 that approximates it; ≥ and ≤ were set here for values at or beyond the usual limits of such assays.
Assay [7] deals with HLA-A*26:01. The description is as above.
The target of assay [8] is HLA-A*01:01. The description is as above.
Assay [9] concerns the target HLA-A*11:01. The assay is described as above.
In assay [10] the target is HLA-A*24:03. The assay is described as above. Particulars: source organism: Rickettsia prowazekii.
The target in assay [11] is HLA-A*03:01. The assay is described as above.
Assay [12] deals with HLA-B*08:01. Described as above.
The target of assay [13] is HLA-B*44:02. Described as above.
Assay [14] concerns the target HLA-B*58:01. The description is as above.
Assay [15] has as its target HLA-A*31:01. The assay is described as above.
The target of assay [16] is HLA-B*35:01. The description is as above.
Assay [17] concerns the target HLA-B*40:01. The description is as above.
For assay [18], the target named is HLA-B*27:05. The description is as above.
Assay [19] deals with HLA-B*15:01. The description is as above.
In assay [20] the target is HLA-A*02:01. The assay is described as above.
Assay [21] deals with HLA-B*07:02. The assay is described as above.
Assay [22] concerns the target HLA-B*18:01. Described as above.
Assay [23] deals with HLA-B*46:01. The assay is described as above.
For assay [24], the target named is HLA-B*15:09. Described as above. Particulars: source organism: Influenza A virus(A/swine/Henan/8/2004(H9N2)).
In assay [25] the target is HLA-B*15:01. The experiment in a line: IEDB peptide-MHC binding, purified MHC/competitive/fluorescence; ≥ and ≤ were set here for values at or beyond the usual limits of such assays. Particulars: source organism: Vaccinia virus.
In assay [26] the target is HLA-B*48:01. The experiment in a line: IEDB peptide-MHC binding, purified MHC/competitive/fluorescence; filed as Kd, often an IC50 or EC50 that approximates it; ≥ and ≤ were set here for values at or beyond the usual limits of such assays.
Assay [27] concerns the target HLA-B*08:02. As to the kind of experiment: IEDB peptide-MHC binding, purified MHC/direct/fluorescence; filed as Kd, often an IC50 or EC50 that approximates it; ≥ and ≤ were set here for values at or beyond the usual limits of such assays.
The target in assay [28] is HLA-B*39:01. The experiment in a line: IEDB peptide-MHC binding, purified MHC/competitive/fluorescence; filed as Kd, often an IC50 or EC50 that approximates it; ≥ and ≤ were set here for values at or beyond the usual limits of such assays. Particulars: source organism: Yersinia pestis Nepal516.
Assay [29] has as its target HLA-B*40:01. The assay is described as above.
Assay [30] has as its target HLA-A*02:01. The description is as above. Particulars: source organism: Yersinia pestis Nepal516.
Assay [31] addresses HLA-A*30:01. As to the kind of experiment: IEDB peptide-MHC binding, purified MHC/direct/fluorescence; filed as Kd, often an IC50 or EC50 that approximates it; ≥ and ≤ were set here for values at or beyond the usual limits of such assays. Particulars: source organism: Escherichia coli.
Setting [32] is: source organism: Rickettsia prowazekii.
[33] abbreviates: source organism: Zaire ebolavirus.
Where [34] appears, read: source organism: Influenza A virus (A/duck/Korea/S10/03(H3N2)).
[35] abbreviates: source organism: Influenza A virus (A/South Carolina/1/1918(H1N1)).
Setting [36] is: source organism: Escherichia coli.
[37] abbreviates: source organism: Shigella dysenteriae.
Setting [38] is: source organism: Giardia lamblia ATCC 50803.
[39] abbreviates: source organism: Vibrio parahaemolyticus.

DYLTTYFTW registered a Kd in [1] (source organism: Bacillus anthracis str. A0488) not above 0.001 µM.
In the case of FLPADFFPSV, in assay [2] (source organism: Hepatitis B virus), the IC50 is 1.2 nM.
On to ITDFHERPV, for which the IC50 in assay [3] (source organism: Variola virus) is 6.25 µM; in [4] (source organism: Variola virus) it was 5.75 µM.
In assay [1] (source organism: Cryptosporidium parvum Iowa II), IWIKLSYLW displayed a Kd of 0.01 µM.
With IYPGVNHGF, the Kd in [5] came to 0.3 nM.
As for NLKLYGAEF, the equilibrium dissociation constant (Kd) in assay [6] (setting [32]) is not below 20000 nM; in [7] (setting [32]), not below 20 µM; in [8] (setting [32]), not below 20 µM; in assay [9] (setting [32]) it was not below 20 µM; in [10] it was 11.6 µM; in [11] (setting [32]), not below 20 µM. Besides, the dissociation constant Kd is 0.433 µM in assay [12] (setting [32]); not below 20 µM in [13] (setting [32]); not below 20 µM in assay [14] (setting [32]); not below 20 µM in assay [15] (setting [32]); 281 nM in assay [16] (setting [32]); not below 20 µM in assay [17] (setting [32]). Besides, the equilibrium dissociation constant (Kd) in assay [18] (setting [32]) is not below 20 µM; in [19] (setting [32]), 0.133 µM; in [20] (setting [32]) it was not below 20 µM; in [21] (setting [32]), not below 20 µM.
As for NTSKSTDFL, the 50% inhibitory concentration (IC50) in assay [3] (setting [33]) is not below 191 µM; in assay [4] (setting [33]) it was not below 495 µM.
With PAHKSQLVW, the dissociation constant Kd in assay [6] (setting [34]) is not below 20000 nM; in assay [7] (source organism: Influenza A virus(A/swine/Henan/8/2004(H9N2))), not below 20 µM; in assay [8] (setting [34]), not below 20 µM; in assay [9] (setting [34]) it was not below 20 µM; in assay [1] (setting [34]) it was not below 20 µM; in assay [11] (setting [34]) it was not below 20 µM. The Kd in [22] (setting [34]) is not below 20 µM; in [12] (setting [34]), not below 20 µM; in assay [13] (setting [34]) it was not below 20 µM; in assay [14] (setting [34]), 2.21 µM; in assay [15] (setting [34]) it was not below 20 µM; in assay [17] (setting [34]) it was not below 20 µM. Also, the Kd in [23] (setting [34]), in [18] (setting [34]), in assay [19] (setting [34]), in assay [20] (setting [34]), in assay [21] (setting [34]) and in [24] was not below 20 µM each time.
Consider PSIATNLEY, for which the half-maximal inhibitory concentration (IC50) worked out at 15.2 µM in assay [3] (source organism: Vaccinia virus) and 43.7 µM in assay [25].
PTLDKVLEL: the IC50 in assay [2] (source organism: Homo sapiens) came out at 10000 nM.
Regarding RALAYDPAL, the Kd in assay [26] (source organism: Burkholderia mallei SAVP1) stood at 80.8 nM.
With RLFFKCIYR, the Kd in [8] (setting [35]) was not below 20 µM; in assay [1] (setting [35]) it was not below 20 µM; in [11] (source organism: Influenza A virus (A/Puerto Rico/8/34/Mount Sinai(H1N1))) it was 0.146 µM; in assay [22] (setting [35]), not below 20 µM; in [12] (setting [35]) it was not below 20 µM; in [13] (setting [35]) it was not below 20 µM. Further, the dissociation constant Kd in [14] (setting [35]), in [17] (setting [35]), in assay [23] (setting [35]), in assay [18] (setting [35]), in [27] (source organism: Influenza A virus H3N2) and in [19] (setting [35]) was not below 20 µM throughout. Further, the dissociation constant Kd in assay [20] (setting [35]) and in assay [21] (setting [35]) was not below 20 µM each time.
Turning to RQGKPDWLL, the Kd in assay [26] (source organism: Vibrio vulnificus CMCP6) was 124 nM.
For the sequence RQWFIDVPL, the dissociation constant (Kd) in [26] (source organism: dengue virus type 2) was determined as 68.4 nM.
Take RTLDKVLEV: in assay [2] (source organism: Homo sapiens), the IC50 stood at 40 nM.
On to TQFGVPFVL, for which the dissociation constant (Kd) worked out at 0.3 nM in assay [28], 205 nM in assay [29] (source organism: Yersinia pestis Nepal516) and 13.5 nM in assay [30].
For the sequence TTFPVNGGY, the Kd worked out at 334 nM in [6] (setting [36]); 0.0228 µM in [7] (setting [36]); 0.345 µM in assay [8] (setting [36]); 5.77 µM in assay [9] (setting [36]); 16 µM in assay [31]; 1.46 µM in [11] (setting [36]). Besides, the Kd in [12] (setting [37]) was not below 20 µM; in [13] (setting [37]) it was not below 20 µM; in assay [14] (setting [36]) it was not below 10 µM; in assay [15] (setting [37]), not below 20 µM; in assay [16] (setting [36]), 97 nM; in assay [17] (setting [37]), not below 20 µM. The dissociation constant Kd was not below 20 µM in assay [18] (setting [37]), 0.165 µM in assay [19] (setting [36]), not below 20 µM in assay [20] (setting [37]) and not below 20 µM in assay [21] (setting [37]).
The sequence VESKNFADF had a Kd in assay [29] (source organism: Bacillus cereus G9241) of 418 nM.
Consider VSSKKCTAL, for which the Kd was not below 20000 nM in assay [6] (setting [38]); not below 20 µM in [7] (setting [38]); not below 20 µM in assay [8] (setting [38]); not below 20 µM in assay [9] (setting [38]); not below 20 µM in assay [1] (setting [38]); not below 20 µM in [11] (setting [38]). Also, the Kd in assay [22] (setting [38]) was not below 20 µM; in assay [12] (setting [38]) it was 17.7 µM; in assay [13] (setting [38]), not below 20 µM; in [14] (setting [38]), not below 20 µM; in assay [15] (setting [38]), not below 20 µM; in [17] (setting [38]), not below 20 µM. Besides, the dissociation constant (Kd) in assay [23] (setting [38]), in [18] (setting [38]), in [27] (setting [38]), in assay [19] (setting [38]), in assay [20] (setting [38]) and in assay [21] (setting [38]) was not below 20 µM in each case.
As to YPKCDLVEL, the Kd in assay [6] (setting [39]) was 177 nM; in assay [7] (setting [39]), not below 20 µM; in assay [8] (setting [39]), not below 20 µM; in assay [9] (setting [39]), not below 20 µM; in [11] (setting [39]) it was not below 20 µM; in assay [12] (setting [39]), 0.54 µM. The Kd was not below 20 µM in assay [13] (setting [39]); not below 20 µM in [14] (setting [39]); not below 20 µM in [15] (setting [39]); 8.16 nM in assay [16] (setting [39]); not below 20 µM in assay [17] (setting [39]); not below 20 µM in [18] (setting [39]). In addition, the Kd was not below 20 µM in [19] (setting [39]), not below 20 µM in [20] (setting [39]) and 0.224 µM in assay [21] (setting [39]).
